The supplement of paper PMC11780869

Test system: Bacillus subtilis
Assay: cleaved RNA product abundance (RNA/gDNA barcode ratio) relative to median wild-type variant (ratio to wild type); higher = more accumulation of the downstream cleavage product
Details: cleavage site: cggR-gapA (positions -7 to +36 mutated)
Method in brief: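 In LB at 37°C, B. subtilis cultures went from OD600 0.0003 to 0.3. Their chromosomes held barcoded reporter mRNAs, truncated aprE or tetM, with RNase Y cleavage-site windows mutagenized via oligos at a 9% error rate. Cleaved RNA, chosen by gel, was reverse transcribed and barcode-sequenced alongside genomic DNA barcodes with UMI collapsing, giving a per-construct RNA:gDNA ratio scaled to the median construct with the unmutated site. This scaled ratio is termed cleaved product abundance.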

[1] = experiment (reporter, strain, medium): exp 2b: truncated aprE reporter, strain BJT200
[2] = experiment (reporter, strain, medium): exp 4a: truncated aprE reporter, strain BJT201 with 2% xylose (RNase J1 expressed)
[3] = experiment (reporter, strain, medium): exp 6: tetM reporter, strain 168

Sequence	cleaved RNA product abundance [1]	cleaved RNA product abundance [2]	cleaved RNA product abundance [3]
ACAGACGAAGGAGCCGCAAAGAAGTTATTAAGGGATGAATAATCTCTCAATATAAATAACTCTCACTTATTTAAA	0.645	–	–
ACAGACGAAGGAGCCGCAAAGAAGTTATTAAGGGATGAATAATCTCTCAATATAAATATCTCTCACTTATTTAAA	0.688	0.738	0.96
ACAGACGAAGGAGCCGCAAAGAAGTTATTAAGGGATGAATAATCTCTCAATATAAATATTTCTCACTTATTTAAA	–	0.948	–
ACAGACGAAGGAGCCGCAAAGAAGTTATTAAGGGATGAATAATCTCTCAATATAAATTTCTCTCACTTATTTAAA	–	0.708	–
ACAGACGAAGGAGCCGCAAAGAAGTTATTAAGGGATGAATAATCTCTCAATATATATATCTCTCACTTATTTAAA	0.682	0.989	–
ACAGACGAAGGAGCCGCAAAGAAGTTATTAAGGGATGAATAATCTCTCATTATAAATATCTCTCACTTATTTAAA	–	0.351	–
ACAGACGAAGGAGCCGCAAAGAAGTTATTAAGGGATGAATAATCTCTCTATATAAATATCTCTCACTTATTTAAA	–	0.292	–
ACAGACGAAGGAGCCGCAAAGAAGTTATTAAGGGATGAATAATCTCTGAATATAAATATCTCTCACTTATTTAAA	–	0.634	–
ACAGACGAAGGAGCCGCAAAGAAGTTATTAAGGGATGAATAATCTGTCAATATAAATATCTCTCACTTATTTAAA	0.0956	0.123	–
ACAGACGAAGGAGCCGCAAAGAAGTTATTAAGGGATGAATAATCTTTCAATATAAATATCTCTCACTTATTTAAA	–	0.122	–
ACAGACGAAGGAGCCGCAAAGAAGTTATTAAGGGATGAATAATGACTCAATATAAATATCTCTCACTTATTTAAA	–	0.142	–
ACAGACGAAGGAGCCGCAAAGAAGTTATTAAGGGATGAATAATGCATCAATATAAATATCTCTCACTTATTTAAA	–	0.159	–
ACAGACGAAGGAGCCGCAAAGAAGTTATTAAGGGATGAATAATGCCACAATATAAATATCTCTCACTTATTTAAA	–	0.0904	–
ACAGACGAAGGAGCCGCAAAGAAGTTATTAAGGGATGAATAATGCCCCAATATAAATATCTCTCACTTATTTAAA	–	0.134	–
ACAGACGAAGGAGCCGCAAAGAAGTTATTAAGGGATGAATAATGCCTAAATATAAATATCTCTCACTTATTTAAA	–	0.149	–
ACAGACGAAGGAGCCGCAAAGAAGTTATTAAGGGATGAATAATGCCTCAAAATAAATATCTCTCACTTATTTAAA	–	0.173	–
ACAGACGAAGGAGCCGCAAAGAAGTTATTAAGGGATGAATAATGCCTCAATAGAAATATCTCTCACTTATTTAAA	–	0.0653	–
ACAGACGAAGGAGCCGCAAAGAAGTTATTAAGGGATGAATAATGCCTCAATATAAAAATCTCTCACTTATTTAAA	0.15	0.159	–
ACAGACGAAGGAGCCGCAAAGAAGTTATTAAGGGATGAATAATGCCTCAATATAAATATCTCTCACTTATTTAAA	0.129	0.17	0.128
ACAGACGAAGGAGCCGCAAAGAAGTTATTAAGGGATGAATAATGCCTCACTATAAATATCTCTCACTTATTTAAA	–	0.142	–
ACAGACGAAGGAGCCGCAAAGAAGTTATTAAGGGATGAATAATGCCTCATTATAAATATCTCTCACTTATTTAAA	–	0.127	–
ACAGACGAAGGAGCCGCAAAGAAGTTATTAAGGGATGAATAATGCCTCTATATAAATATCTCTCACTTATTTAAA	0.111	–	–
ACAGACGAAGGAGCCGCAAAGAAGTTATTAAGGGATGAATAATGGCTCAATATAAATATCTCTCACTTATTTAAA	–	0.0723	–

Sequence	cleaved RNA product abundance [1]	cleaved RNA product abundance [2]	cleaved RNA product abundance [3]
ACAGACGAAGGAGCCGCAAAGAAGTTATTAAGGGATGAATAATGTCTCAATATAAATATCTCTCACTTATTTAAA	–	0.0823	–
ACAGACGAAGGAGCCGCAAAGAAGTTATTAAGGGATGAATAATTACTCAATATAAATATCTCTCACTTATTTAAA	0.0971	0.137	0.11
ACAGACGAAGGAGCCGCAAAGAAGTTATTAAGGGATGAATAATTCATCAATATAAATATCTCTCACTTATTTAAA	–	0.201	–
ACAGACGAAGGAGCCGCAAAGAAGTTATTAAGGGATGAATAATTCCACAATATAAATATCTCTCACTTATTTAAA	–	0.148	–
ACAGACGAAGGAGCCGCAAAGAAGTTATTAAGGGATGAATAATTCCGCAATATAAATATCTCTCACTTATTTAAA	–	0.188	–
ACAGACGAAGGAGCCGCAAAGAAGTTATTAAGGGATGAATAATTCCTAAATATAAATATCTCTCACTTATTTAAA	–	0.508	–
ACAGACGAAGGAGCCGCAAAGAAGTTATTAAGGGATGAATAATTCCTCAAAATAAATATCTCTCACTTATTTAAA	–	0.331	–
ACAGACGAAGGAGCCGCAAAGAAGTTATTAAGGGATGAATAATTCCTCAACATAAATATCTCTCACTTATTTAAA	0.134	0.183	–
ACAGACGAAGGAGCCGCAAAGAAGTTATTAAGGGATGAATAATTCCTCAAGATAAATATCTCTCACTTATTTAAA	0.146	0.256	–
ACAGACGAAGGAGCCGCAAAGAAGTTATTAAGGGATGAATAATTCCTCAATATAAAAATCTCTCACTTATTTAAA	–	0.86	–
ACAGACGAAGGAGCCGCAAAGAAGTTATTAAGGGATGAATAATTCCTCAATATAAATATCTCTCACTTATTTAAA	0.506	0.616	0.494
ACAGACGAAGGAGCCGCAAAGAAGTTATTAAGGGATGAATAATTCCTCAATATAAATGTCTCTCACTTATTTAAA	–	0.564	–
ACAGACGAAGGAGCCGCAAAGAAGTTATTAAGGGATGAATAATTCCTCAATATAAATTTCTCTCACTTATTTAAA	–	0.625	–
ACAGACGAAGGAGCCGCAAAGAAGTTATTAAGGGATGAATAATTCCTCAATATAATTATCTCTCACTTATTTAAA	0.298	0.254	–
ACAGACGAAGGAGCCGCAAAGAAGTTATTAAGGGATGAATAATTCCTCAATATACATATCTCTCACTTATTTAAA	–	0.498	–
ACAGACGAAGGAGCCGCAAAGAAGTTATTAAGGGATGAATAATTCCTCAATTTAAATATCTCTCACTTATTTAAA	0.0889	0.0634	–
ACAGACGAAGGAGCCGCAAAGAAGTTATTAAGGGATGAATAATTCCTCACTATAAATATCTCTCACTTATTTAAA	0.132	0.156	–
ACAGACGAAGGAGCCGCAAAGAAGTTATTAAGGGATGAATAATTCCTCATTATAAATATCTCTCACTTATTTAAA	0.177	0.306	–
ACAGACGAAGGAGCCGCAAAGAAGTTATTAAGGGATGAATAATTCCTCCATATAAATATCTCTCACTTATTTAAA	0.102	0.119	–
ACAGACGAAGGAGCCGCAAAGAAGTTATTAAGGGATGAATAATTCCTCTATATAAATATCTCTCACTTATTTAAA	–	0.248	–
ACAGACGAAGGAGCCGCAAAGAAGTTATTAAGGGATGAATAATTCCTGAATATAAATATCTCTCACTTATTTAAA	–	0.471	–
ACAGACGAAGGAGCCGCAAAGAAGTTATTAAGGGATGAATAATTCGTCAATATAAATATCTCTCACTTATTTAAA	0.0726	–	–
ACAGACGAAGGAGCCGCAAAGAAGTTATTAAGGGATGAATAATTCTTCAATATAAATATCTCTCACTTATTTAAA	–	0.18	–
